Data on two molecules can be found in paper PMC5704011.

Common to all, as to conditions: remark: other sources report otherwise
Assay [1] addresses T1, human recombinant VEGFR2 (human), P35968.
T1 chain: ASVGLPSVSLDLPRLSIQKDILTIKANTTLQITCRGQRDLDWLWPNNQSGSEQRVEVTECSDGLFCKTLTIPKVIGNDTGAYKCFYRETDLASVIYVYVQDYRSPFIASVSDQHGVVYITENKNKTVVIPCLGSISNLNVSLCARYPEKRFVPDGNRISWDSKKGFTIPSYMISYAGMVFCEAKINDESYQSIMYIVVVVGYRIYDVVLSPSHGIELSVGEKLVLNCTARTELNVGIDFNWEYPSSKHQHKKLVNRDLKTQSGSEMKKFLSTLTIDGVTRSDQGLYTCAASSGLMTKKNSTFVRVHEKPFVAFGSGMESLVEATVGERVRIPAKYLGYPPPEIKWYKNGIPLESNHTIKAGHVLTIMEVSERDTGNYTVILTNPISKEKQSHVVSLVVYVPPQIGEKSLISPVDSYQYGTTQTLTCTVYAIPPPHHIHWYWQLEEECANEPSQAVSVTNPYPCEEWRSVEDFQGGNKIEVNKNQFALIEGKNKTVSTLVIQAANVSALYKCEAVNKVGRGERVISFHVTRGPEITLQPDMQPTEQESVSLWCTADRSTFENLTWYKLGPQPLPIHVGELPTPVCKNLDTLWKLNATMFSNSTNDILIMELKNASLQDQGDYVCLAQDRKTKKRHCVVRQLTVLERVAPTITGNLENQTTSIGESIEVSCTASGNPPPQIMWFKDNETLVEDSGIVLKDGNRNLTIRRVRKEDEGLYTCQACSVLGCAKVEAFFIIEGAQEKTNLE
The experiment in a line: SPR; BIAcore 3000, 25 °C, CM5 chip; receptor immobilised by amine coupling (~200-500 R.U.); ligand injected at 10, 20 and 40 nM, 30 uL/min, 10 min dissociation; HBS-EP pH 7.4 (10 mM HEPES, 3 mM EDTA, 150 mM NaCl, 0.005% TWEEN-20); angiopoietin-4 reference cell subtracted; global 1:1 Langmuir fit; χ2-to-Rmax > 1.0 or negative association curves taken as no true interaction.

For assay [2] the target is unchanged. The experiment in a line: SPR; BIAcore 3000, 25 °C, CM5 chip; receptor immobilised by amine coupling (~200-500 R.U.); ligand injected at 40, 20 and 10 nM in HBS-EP pH 7.4 (10 mM HEPES, 3 mM EDTA, 150 mM NaCl, 0.005% TWEEN-20); angiopoietin-4 reference cell subtracted; global 1:1 Langmuir fit; χ^2-to-Rmax < 1.0 taken as a true interaction.
Assay [3] has as its target T2, human recombinant PDGFRβ (human), P09619.
T2 chain: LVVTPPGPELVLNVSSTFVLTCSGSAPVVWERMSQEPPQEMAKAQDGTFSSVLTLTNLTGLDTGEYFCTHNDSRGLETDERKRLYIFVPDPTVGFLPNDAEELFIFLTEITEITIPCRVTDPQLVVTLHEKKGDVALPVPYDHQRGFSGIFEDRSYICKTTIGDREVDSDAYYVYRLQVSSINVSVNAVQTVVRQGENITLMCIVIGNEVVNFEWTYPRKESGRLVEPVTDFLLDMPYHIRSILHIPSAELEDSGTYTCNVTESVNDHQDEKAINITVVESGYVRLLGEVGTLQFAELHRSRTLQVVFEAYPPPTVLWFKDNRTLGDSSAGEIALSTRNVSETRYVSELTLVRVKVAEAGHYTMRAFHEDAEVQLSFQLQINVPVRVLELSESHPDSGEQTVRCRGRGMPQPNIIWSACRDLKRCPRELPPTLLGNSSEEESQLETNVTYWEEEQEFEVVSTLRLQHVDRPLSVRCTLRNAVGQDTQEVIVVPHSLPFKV
The description is as above.

B1: human recombinant PDGF-CC, Q9NRA1 23-345 (ligand)
chain: VVDLNLLTEEVRLYSCTPRNFSVSIREELKRTDTIFWPGCLLVKRCGGNCACCLHNCNECQCVPSKVTKKYHEVLQLRPKTGVRGLHKSLTDVALEHHEECDCVCRGSTGG
modifications: here or on the partner: disulfide-linked homodimer; limits not given, active growth factor domain after cleavage at Arg234 taken by convention
In the case of B1, in assay [1], the koff was 2.6e-05 s⁻¹ and the kon worked out at 36000 M⁻¹ s⁻¹.

B2: human recombinant PDGF-CC, Q9NRA1 235-345 (ligand)
chain: VVDLNLLTEEVRLYSCTPRNFSVSIREELKRTDTIFWPGCLLVKRCGGNCACCLHNCNECQCVPSKVTKKYHEVLQLRPKTGVRGLHKSLTDVALEHHEECDCVCRGSTGG
For the molecule B2, the Kd in assay [2] is 0.07 nM; in assay [3], 1.9 nM.
